Drawing on article doi:10.1101/2024.05.08.592654, this text covers fold more abundant with PNUTS^WT than with PNUTS^W726A for one substance.

In the assay the target is GFP-PNUTS^W726A-HA (non-PP1 binding mutant) (Drosophila). As to the kind of experiment: affinity purification with mass spectrometry.

Turning to “PP1-87B (from UniProt P12982 1-302) (enzyme)”, the fold more abundant with PNUTS^WT than with PNUTS^W726A amounted to 12 fold.
